From paper doi:10.1101/2024.11.25.625199

Target: cross-linked CA(M66I) hexamer, CA(A14C/E45C/W184A/M185A) with M66I (HIV-1)
Assay: crystal structure

Substance: cross-linked CA(M66I) hexamer, CA(A14C/E45C/W184A/M185A) with M66I (natural protein)
- stoichiometry N: 6
